Laboratory results from patent US20140179604A1 (U S A REPRESENTED BY THE DEPARTMENT OF VETERANS AFFAIRS, published 2014).
Non-standard residues stand in square brackets, D forms with d. No end group written: not given here. *: point of attachment. Phe(F5) = N[C@@H](Cc1c(F)c(F)c(F)c(F)c1F)C(=O)O; Desaminotyrosyl = O=C(CCc1ccc(O)cc1)*; NMeY = CN[C@@H](Cc1ccc(O)cc1)C(=O)O; Agmatine = N=C(N)NCCCCN*; NMeA = CN[C@@H](C)C(=O)O; Nle = CCCC[C@H](N)C(=O)O; Orn = NCCC[C@H](N)C(=O)O; Abu = CC[C@H](N)C(=O)O; GABA = NCCCC(=O)O

T1: GHRH receptor (membrane receptors of human anterior pituitary cells) (human, UniProt Q02643 23-423)
T1 construct: whole, on cells; Native receptor in a membrane fraction of purchased normal human pituitaries, not intact cells; also called hGHRH receptor; human pituitary membrane homogenates
T1 sequence (looked up): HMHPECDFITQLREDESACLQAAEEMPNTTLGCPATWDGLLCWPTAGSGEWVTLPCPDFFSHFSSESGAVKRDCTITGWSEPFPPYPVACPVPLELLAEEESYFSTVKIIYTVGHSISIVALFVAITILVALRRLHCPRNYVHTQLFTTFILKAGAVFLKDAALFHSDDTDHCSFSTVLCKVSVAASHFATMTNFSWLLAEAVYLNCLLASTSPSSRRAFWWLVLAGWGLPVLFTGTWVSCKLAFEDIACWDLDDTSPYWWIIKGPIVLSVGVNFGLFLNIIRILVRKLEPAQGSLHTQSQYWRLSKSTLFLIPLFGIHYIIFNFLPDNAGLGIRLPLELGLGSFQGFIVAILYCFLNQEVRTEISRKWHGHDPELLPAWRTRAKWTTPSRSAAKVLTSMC

B1: P-25501 [N-Me-Tyr^1, D-Ala^2, Orn^12, Abu^15, Orn^21, Nle^27, Gab^30]hGHRH(1-30)NH2 (peptide)
peptide: [NMeY][dA]DAIFTNSYR[Orn]VL[Abu]QLSAR[Orn]LLQDI[Nle]SR[GABA]-NH2
modifications: N-terminus assumed
SMILES: CCCC[C@H](NC(=O)[C@@H](NC(=O)[C@H](CC(=O)O)NC(=O)[C@H](CCC(N)=O)NC(=O)[C@H](CC(C)C)NC(=O)[C@H](CC(C)C)NC(=O)[C@H](CCCN)NC(=O)[C@H](CCCNC(=N)N)NC(=O)[C@H](C)NC(=O)[C@H](CO)NC(=O)[C@H](CC(C)C)NC(=O)[C@H](CCC(N)=O)NC(=O)[C@H](CC)NC(=O)[C@H](CC(C)C)NC(=O)[C@@H](NC(=O)[C@H](CCCN)NC(=O)[C@H](CCCNC(=N)N)NC(=O)[C@H](Cc1ccc(O)cc1)NC(=O)[C@H](CO)NC(=O)[C@H](CC(N)=O)NC(=O)[C@@H](NC(=O)[C@H](Cc1ccccc1)NC(=O)[C@@H](NC(=O)[C@H](C)NC(=O)[C@H](CC(=O)O)NC(=O)[C@@H](C)NC(=O)[C@H](Cc1ccc(O)cc1)NC)[C@@H](C)CC)[C@@H](C)O)C(C)C)[C@@H](C)CC)C(=O)N[C@@H](CO)C(=O)N[C@@H](CCCNC(=N)N)C(=O)NCCCC(N)=O
notes: also called Peptide 25501
B2: P-27414 [N-Me-Tyr^1, D-Ala^2, Fpa5^6, Orn^12, Abu^15, Orn^21, Nle^27, Gab^30]hGHRH(1-30)NH-CH3 (peptide)
peptide: [NMeY][dA]DAI[Phe(F5)]TNSYR[Orn]VL[Abu]QLSAR[Orn]LLQDI[Nle]SR[GABA]-NHMe
notes: also called Peptide 27414
B3: P-20357 [Dat^1, D-Ala^2, N-Me-Ala^8, Orn^12, Abu^15, Orn^21, Nle^27, Asp^28, Agm^29]hGHRH(1-29)NH2 (peptide)
peptide: [Desaminotyrosyl][dA]DAIFT[NMeA]SYR[Orn]VL[Abu]QLSAR[Orn]LLQDI[Nle]D[Agmatine]
SMILES: CCCC[C@H](NC(=O)[C@@H](NC(=O)[C@H](CC(=O)O)NC(=O)[C@H](CCC(N)=O)NC(=O)[C@H](CC(C)C)NC(=O)[C@H](CC(C)C)NC(=O)[C@H](CCCN)NC(=O)[C@H](CCCNC(=N)N)NC(=O)[C@H](C)NC(=O)[C@H](CO)NC(=O)[C@H](CC(C)C)NC(=O)[C@H](CCC(N)=O)NC(=O)[C@H](CC)NC(=O)[C@H](CC(C)C)NC(=O)[C@@H](NC(=O)[C@H](CCCN)NC(=O)[C@H](CCCNC(=N)N)NC(=O)[C@H](Cc1ccc(O)cc1)NC(=O)[C@H](CO)NC(=O)[C@H](C)N(C)C(=O)[C@@H](NC(=O)[C@H](Cc1ccccc1)NC(=O)[C@@H](NC(=O)[C@H](C)NC(=O)[C@H](CC(=O)O)NC(=O)[C@@H](C)NC(=O)CCc1ccc(O)cc1)[C@@H](C)CC)[C@@H](C)O)C(C)C)[C@@H](C)CC)C(=O)N[C@@H](CC(=O)O)C(=O)NCCCCNC(=N)N
notes: also called Peptide 20357
B4: P-27400 [Dat^1, D-Ala^2, Orn^12, Abu^15, Orn^21, Nle^27, Asp^28]hGHRH(1-29)NH-CH3 (peptide)
peptide: [Desaminotyrosyl][dA]DAIFTNSYR[Orn]VL[Abu]QLSAR[Orn]LLQDI[Nle]DR-NHMe
SMILES: CCCC[C@H](NC(=O)[C@@H](NC(=O)[C@H](CC(=O)O)NC(=O)[C@H](CCC(N)=O)NC(=O)[C@H](CC(C)C)NC(=O)[C@H](CC(C)C)NC(=O)[C@H](CCCN)NC(=O)[C@H](CCCNC(=N)N)NC(=O)[C@H](C)NC(=O)[C@H](CO)NC(=O)[C@H](CC(C)C)NC(=O)[C@H](CCC(N)=O)NC(=O)[C@H](CC)NC(=O)[C@H](CC(C)C)NC(=O)[C@@H](NC(=O)[C@H](CCCN)NC(=O)[C@H](CCCNC(=N)N)NC(=O)[C@H](Cc1ccc(O)cc1)NC(=O)[C@H](CO)NC(=O)[C@H](CC(N)=O)NC(=O)[C@@H](NC(=O)[C@H](Cc1ccccc1)NC(=O)[C@@H](NC(=O)[C@H](C)NC(=O)[C@H](CC(=O)O)NC(=O)[C@@H](C)NC(=O)CCc1ccc(O)cc1)[C@@H](C)CC)[C@@H](C)O)C(C)C)[C@@H](C)CC)C(=O)N[C@@H](CC(=O)O)C(=O)N[C@@H](CCCNC(=N)N)C(=O)NC
B5: P-20359 [N-Me-Tyr^1, D-Ala^2, Fpa5^6, Orn^12, Abu^15, Orn^21, Nle^27, Asp^28, Agm^29]hGHRH(1-29)NH2 (peptide)
peptide: [NMeY][dA]DAI[Phe(F5)]TNSYR[Orn]VL[Abu]QLSAR[Orn]LLQDI[Nle]D[Agmatine]
notes: also called Peptide 20359

What follows are binders tested against T1, GHRH receptor (membrane receptors of …) (assay: competition with 125I-JV-1-42, human pituitary membranes).
Source text: Normal human pituitaries were purchased from the National Hormone and Peptide Program (A. F. Parlow, Los Angeles, County Harbor-UCLA Medical Center, Torrance, Calif.).

B1 and B2 are within 1.5-fold of each other in IC50: 1.07 nM for the first, 1.56 nM for the second.

Compared with B3, B4 is 3.9-fold higher in IC50: 0.86 nM for the first, 3.35 nM for the second.

In the case of B5, the IC50 is reported as 3.05 nM.

Compared with B1, B2 is lower in “Relative affinity (Binding potency) vs JI-38” value (“Relative affinity” for short): 4.07 JI-38 = 1 for the first, 2.79 JI-38 = 1 for the second.

First: B3
Second: B4
The “Relative affinity” value of the first is higher: 5.06 JI-38 = 1 for the first, 1.3 JI-38 = 1 for the second.

In the case of B5, the “Relative affinity” value is reported as 1.43 JI-38 = 1.
